Biological target: human glucose‐regulated protein 78 (hGRP78), full-length (human, UniProt P11021 19-654)
Assay: SPR

Chain of human glucose‐regulated protein 78 (hGRP78), full-length (P11021 19-654): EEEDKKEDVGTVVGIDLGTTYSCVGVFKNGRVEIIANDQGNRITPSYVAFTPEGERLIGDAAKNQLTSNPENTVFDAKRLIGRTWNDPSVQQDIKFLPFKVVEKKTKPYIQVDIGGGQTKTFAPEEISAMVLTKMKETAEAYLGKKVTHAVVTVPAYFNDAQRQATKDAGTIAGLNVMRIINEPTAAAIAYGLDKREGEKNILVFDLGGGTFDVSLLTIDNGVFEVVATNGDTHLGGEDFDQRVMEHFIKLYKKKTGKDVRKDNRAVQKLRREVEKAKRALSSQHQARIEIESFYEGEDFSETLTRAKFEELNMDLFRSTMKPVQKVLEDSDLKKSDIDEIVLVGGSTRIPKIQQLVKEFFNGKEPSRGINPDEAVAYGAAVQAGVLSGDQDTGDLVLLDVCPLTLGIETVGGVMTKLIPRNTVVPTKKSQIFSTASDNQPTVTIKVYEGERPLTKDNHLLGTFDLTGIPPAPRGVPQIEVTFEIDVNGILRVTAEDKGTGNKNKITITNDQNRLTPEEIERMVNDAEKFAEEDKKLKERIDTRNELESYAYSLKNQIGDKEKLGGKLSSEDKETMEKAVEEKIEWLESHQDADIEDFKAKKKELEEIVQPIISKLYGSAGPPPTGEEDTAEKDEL

B1: Nb NBD1 (VHH)
VHH: AVQLVESGGGSVQAGGSLTLSCAASINTGNPALVGWYRQAPGKQREMVAMISISGNTNYAPSVKGRFTISRDNANKTIFLQMNSLTPEDTAVYYCKKLPFGSWGQGTQVTVSS
- koff: 0.000575 s⁻¹

From paper PMC12097070 (2025)
